In publication PMC12012759 (Protein Science : A Publication of the Protein Society, 2025):

What was measured:
Assay in all cases: ELISA
Conditions in all cases: both partners purified
[1] = molecular target: T1, Fc fusion of Severe acute respiratory syndrome coronavirus 2 P0DTC2 (SARS‐CoV‐2 Wuhan, UniProt P0DTC2)
T1 construct: also called RBD‐Fc; RBD

human serum albumin = human serum albumin (Homo sapiens, UniProt P02768)
[2] = molecular target: full‐length SARS‐CoV‐2 spike protein (1273 amino acids) (SARS-CoV-2 Wuhan, UniProt P0DTC2)

Measured: binding result

B1: Clostridioides difficile toxin A‐specific A20.1 VHH (VHH)
VHH: QVQLVESGGGLAQAGGSLRLSCAASGRTFSMDPMAWFRQPPGKEREFVAAGSSTGRTTYYADSVKGRFTISRDNAKNTVYLQMNSLKPEDTAVYYCAAAPYGANWYRDEYAYWGQGTQVTVSS
no binding: all assays above
